Measurements published in US20240116985A1 (published 2024).
Starred links: 1 amine or outer side, 2 acyl side, 3 side chain; linkers in the order of their positions; H or OH if unused. Positions of bridges follow the written chain, without caps; N, C: chain ends. Non-standard residues stand in square brackets, D forms with d. Groups on a side chain read outwards from the residue. Primed or numbered codes have the meaning given here. *: point of attachment. (4Pippip)GlnR = (S)-5-([1,4'-bipiperidin]-1'-yl)-2-amino-5-oxopentanoic acid (Gln side-chain amide with 4-piperidinopiperidine), O=C(CC[C@H](N[*:1])C(=O)[*:2])N1CCC(N2CCCCC2)CC1; (4MePpzPip)GlnR = (S)-2-amino-5-(4-(4-methylpiperazin-1-yl)piperidin-1-yl)-5-oxopentanoic acid, CN1CCN(C2CCN(C(=O)CC[C@H](N[*:1])C(=O)[*:2])CC2)CC1; (Me2NPrPip)GlnR = (S)-2-amino-5-(4-(3-(dimethylamino)propyl)piperazin-1-yl)-5-oxopentanoic acid, CN(C)CCCN1CCN(C(=O)CC[C@H](N[*:1])C(=O)[*:2])CC1; PyrS2″ = (S)-3-amino-1-((pent-4-en-1-yloxy)carbonyl)pyrrolidine-3-carboxylic acid (stapling residue), C=CCCCOC(=O)N1CC[C@@](N[*:1])(C(=O)[*:2])C1; (TfePpz)GlnR = (S)-2-amino-5-oxo-5-(4-(2,2,2-trifluoroethyl)piperazin-1-yl)pentanoic acid, O=C(CC[C@H](N[*:1])C(=O)[*:2])N1CCN(CC(F)(F)F)CC1; (RDMAPyr)GlnR = (S)-2-amino-5-((R)-3-(dimethylamino)pyrrolidin-1-yl)-5-oxopentanoic acid, CN(C)[C@@H]1CCN(C(=O)CC[C@H](N[*:1])C(=O)[*:2])C1; B5(5) = 2,2-bis(4-pentenyl)glycine, 2-amino-2-(pent-4-en-1-yl)hept-6-enoic acid (stitching residue), C=CCCCC(CCCC=C)(N[*:1])C(=O)[*:2]; TfeGA = (S)-2-amino-3-((carboxymethyl)(2,2,2-trifluoroethyl)amino)propanoic acid, O=C([C@H](CN(CC(=O)[*:3])CC(F)(F)F)N[*:1])[*:2]; PyrS2 = (S)-3-amino-1-((pent-4-en-1-yloxy)carbonyl)pyrrolidine-3-carboxylic acid, C=CCCCOC(=O)N1CC[C@@](N[*:1])(C(=O)[*:2])C1; PyrS1 = (S)-3-amino-1-((but-3-en-1-yloxy)carbonyl)pyrrolidine-3-carboxylic acid, C=CCCOC(=O)N1CC[C@@](N[*:1])(C(=O)[*:2])C1; B5(12) = 2-amino-2-(pent-4-en-1-yl)hept-6-enoic acid (two olefin side chains), C=CCCCC(CCCC=C)(N[*:1])C(=O)[*:2]; B5(19) = 2-amino-2-(pent-4-en-1-yl)hept-6-enoic acid (bis(4-pentenyl)glycine), C=CCCCC(CCCC=C)(N[*:1])C(=O)[*:2]; F2PipNva = (S)-2-amino-5-(4,4-difluoropiperidin-1-yl)pentanoic acid, O=C([C@H](CCCN1CCC(F)(F)CC1)N[*:1])[*:2]; MorphAsn = (S)-2-amino-4-morpholino-4-oxobutanoic acid, O=C(C[C@H](N[*:1])C(=O)[*:2])N1CCOCC1; B5(3) = 2,2-bis(4-pentenyl)glycine (stitching residue), C=CCCCC(CCCC=C)(N[*:1])C(=O)[*:2]; Me3AdamantC = 3,5,7-trimethyladamantane-1-carbonyl, CC12CC3(C)CC(C)(C1)CC(C(=O)*)(C2)C3; Nva(5-morpholino) = N[C@@H](CCCN1CCOCC1)C(=O)O; Phe(3-COOH) = N[C@@H](Cc1cccc(C(=O)O)c1)C(=O)O; Phe(2-Cl) = N[C@@H](Cc1ccccc1Cl)C(=O)O; Bta = N[C@@H](Cc1csc2ccccc12)C(=O)O; αAllylPro = C=CC[C@@]1(C(=O)O)CCCN1; tBuAla = CC(C)(C)C[C@H](N)C(=O)O; 3Thi = N[C@@H](Cc1ccsc1)C(=O)O; Cba = N[C@@H](CC1CCC1)C(=O)O; PyrS2(4) = not defined here; S5 = C=CCCC[C@](C)(N)C(=O)O; TfeGA″ = not defined here; PEG2′ = not defined here; Aib = CC(C)(N)C(=O)O

B1: I-1480 (peptide)
peptide: Ac-[αAllylPro]D[tBuAla][B5(3)]DDAAFL[PyrS2″][3Thi][Bta]QK([PEG2′-Me3AdamantC])-NH2
modifications: staple 1-4, 4-11
B2: I-1481 (peptide)
peptide: Ac-[αAllylPro]D[tBuAla][B5(3)]DD[Nva(5-morpholino)]AFL[PyrS2″][3Thi][Bta]Q-NH2
modifications: staple 1-4, 4-11
B3: I-1482 (peptide)
peptide: Ac-[αAllylPro]D[tBuAla][B5(3)]DD[F2PipNva]AFL[PyrS2″][3Thi][Bta]Q-NH2
modifications: staple 1-4, 4-11
B4: I-1483 (peptide)
peptide: Ac-[αAllylPro]D[tBuAla][B5(3)]DD[MorphAsn]AFL[PyrS2″][3Thi][Bta]Q-NH2
modifications: staple 1-4, 4-11
B5: I-1797 (peptide)
peptide: Ac-[αAllylPro]D[tBuAla][B5(3)]D[TfeGA]AAFL[PyrS2″][3Thi][Bta][(4Pippip)GlnR]-NH2
modifications: staple 1-4, 4-11; not fully specified
B6: I-1799 (peptide)
peptide: Ac-[αAllylPro]D[tBuAla][B5(3)]D[TfeGA]AAFL[PyrS2″][3Thi][Bta][(Me2NPrPip)GlnR]-NH2
modifications: staple 1-4, 4-11; not fully specified
B7: I-1800 (peptide)
peptide: Ac-[αAllylPro]D[tBuAla][B5(3)]D[TfeGA″]AAFL[PyrS2″][3Thi][Bta][(Me2NPrPip)GlnR]-NH2
modifications: staple 1-4, 4-11; not fully specified; reading uncertain
B8: I-1801 (peptide)
peptide: Ac-[αAllylPro]D[tBuAla][B5(3)]D[TfeGA]AAFL[PyrS2″][3Thi][Bta][(4MePpzPip)GlnR]-NH2
modifications: staple 1-4, 4-11; not fully specified
B9: I-1802 (peptide)
peptide: Ac-[αAllylPro]D[tBuAla][B5(3)]D[TfeGA″]AAFL[PyrS2″][3Thi][Bta][(4MePpzPip)GlnR]-NH2
modifications: staple 1-4, 4-11; not fully specified; reading uncertain
B10: I-1803 (peptide)
peptide: Ac-[αAllylPro]D[tBuAla][B5(3)]D[TfeGA]AAFL[PyrS2″][3Thi][Bta][(TfePpz)GlnR]-NH2
modifications: staple 1-4, 4-11
B11: I-1804 (peptide)
peptide: Ac-[αAllylPro]D[tBuAla][B5(3)]D[TfeGA]AAFL[PyrS2″][3Thi][Bta][(RDMAPyr)GlnR]-NH2
modifications: staple 1-4, 4-11; not fully specified
B12: I-1805 (peptide)
peptide: Ac-[αAllylPro]D[tBuAla][B5(3)]D[TfeGA]AAFL[PyrS2″][3Thi][Bta][(RDMAPyr)GlnR]-NH2
modifications: staple 1-4, 4-11; not fully specified
B13: I-1807 (peptide)
peptide: Ac-[αAllylPro]D[tBuAla][S5]DDAAFL[Aib][3Thi][Bta]Q-NH2
modifications: staple 1-4; not fully specified; printed as Ac-PL3-Asp-Npg-S5-Asp-Asp-Ala-Ala-Phe-Leu-Aib-3Thi-BztA-Gln-NH2
B14: I-1808 (peptide)
peptide: Ac-[αAllylPro]D[tBuAla][B5(3)]DDAAFL[PyrS2″][3Thi][Bta]Q-NH2
modifications: staple 1-4, 4-11; also: staple olefins reduced to -CH2-CH2-
B15: I-1813 (peptide)
peptide: Ac-[αAllylPro]D[tBuAla][B5(19)]DDAAFN[PyrS1][3Thi][Bta]Q-NH2
modifications: staple 1-4, 4-11; not fully specified; printed as Ac-PL3-Asp-Npg-B5-Asp-Asp-Ala-Ala-Phe-Asn-PyrS1-3Thi-BztA-Gln-NH2
B16: I-1815 (peptide)
peptide: Ac-[αAllylPro]D[tBuAla][B5(19)]DDAAFL[PyrS1][3Thi][Bta]Q-NH2
modifications: staple 1-4, 4-11; not fully specified; printed as Ac-PL3-Asp-Npg-B5-Asp-Asp-Ala-Ala-Phe-Leu-PyrS1-3Thi-BztA-Gln-NH2
B17: I-1890 (peptide)
peptide: Ac-[αAllylPro]D[tBuAla][B5(5)]DRAAFN[PyrS2][3Thi][Bta]Q-NH2
modifications: staple 1-4, 4-11; not fully specified; printed as Ac-PL3-Asp-Npg-B5-Asp-Arg-Ala-Ala-Phe-Asn-PyrS2-3Thi-BztA-Gln-NH2
B18: I-1891 (peptide)
peptide: Ac-[αAllylPro]D[tBuAla][B5(5)]DRAAFN[PyrS2][3Thi][Bta]Q-NH2
modifications: staple 1-4, 4-11; not fully specified; printed as Ac-PL3-Asp-Npg-B5-Asp-Arg-Ala-Ala-Phe-Asn-PyrS2-3Thi-BztA-Gln-NH2
B19: I-1898 (peptide)
peptide: Ac-[αAllylPro]D[tBuAla][B5(5)]D[Phe(3-COOH)]AAFL[PyrS2][Cba][Bta]S-NH2
modifications: staple 1-4, 4-11; not fully specified; printed as Ac-PL3-Asp-Npg-B5-Asp-3COOHF-Ala-Ala-Phe-Leu-PyrS2-Cba-BztA-Ser-NH2
B20: I-1901 (peptide)
peptide: Ac-[αAllylPro]D[tBuAla][B5(5)]D[Phe(3-COOH)]SAFL[PyrS2][Phe(2-Cl)][Bta]S-NH2
modifications: staple 1-4, 4-11; not fully specified; printed as Ac-PL3-Asp-Npg-B5-Asp-3COOHF-Ser-Ala-Phe-Leu-PyrS2-2C1F-BztA-Ser-NH2
B21: I-1902 (peptide)
peptide: Ac-[αAllylPro]D[tBuAla][B5(5)]D[Phe(3-COOH)]SAFL[PyrS2(4)][Phe(2-Cl)][Bta]S-NH2
modifications: staple 1-4, 4-11; not fully specified; printed as Ac-PL3-Asp-Npg-B5-Asp-3COOHF-Ser-Ala-Phe-Leu-PyrS2-2C1F-BztA-Ser-NH2; reading uncertain
B22: I-1903 (peptide)
peptide: Ac-[αAllylPro]D[tBuAla][B5(12)]D[Phe(3-COOH)]AAFS[PyrS2(4)][Phe(2-Cl)][Bta]S-NH2
modifications: staple 1-4, 4-11; not fully specified; printed as Ac-PL3-Asp-Npg-B5-Asp-3COOHF-Ala-Ala-Phe-Ser-PyrS2-2C1F-BztA-Ser-NH2; reading uncertain

molecular target: T1, Bcat-Halo (beta-catenin HaloTag construct transfected into HEK293 cells) (UniProt P35222 1-781); assay: cell-based or functional assay
T1 sequence (looked up): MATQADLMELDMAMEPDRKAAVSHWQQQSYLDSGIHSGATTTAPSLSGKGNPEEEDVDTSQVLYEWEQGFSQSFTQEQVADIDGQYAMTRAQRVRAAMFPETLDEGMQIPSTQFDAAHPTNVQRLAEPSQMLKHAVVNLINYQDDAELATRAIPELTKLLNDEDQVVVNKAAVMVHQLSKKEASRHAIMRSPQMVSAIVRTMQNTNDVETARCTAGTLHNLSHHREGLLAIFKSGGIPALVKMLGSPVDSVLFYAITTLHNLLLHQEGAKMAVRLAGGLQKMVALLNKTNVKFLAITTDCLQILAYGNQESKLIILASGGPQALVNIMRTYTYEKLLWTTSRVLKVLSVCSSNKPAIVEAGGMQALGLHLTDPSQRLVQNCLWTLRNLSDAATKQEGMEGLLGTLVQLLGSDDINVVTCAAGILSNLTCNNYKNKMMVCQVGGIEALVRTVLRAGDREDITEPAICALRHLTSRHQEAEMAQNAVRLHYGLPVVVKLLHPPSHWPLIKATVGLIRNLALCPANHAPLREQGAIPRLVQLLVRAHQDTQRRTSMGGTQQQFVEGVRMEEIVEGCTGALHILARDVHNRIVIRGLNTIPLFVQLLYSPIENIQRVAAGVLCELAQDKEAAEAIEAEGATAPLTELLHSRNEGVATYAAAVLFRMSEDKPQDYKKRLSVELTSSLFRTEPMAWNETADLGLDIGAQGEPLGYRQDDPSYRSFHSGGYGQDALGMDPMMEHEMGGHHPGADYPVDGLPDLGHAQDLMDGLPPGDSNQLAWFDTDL

Q: For B1, which “NanoBRET Abs IC50” value is on record?
A: 9.3 µM

Q: With B2 as the binder, how does the “NanoBRET Abs IC50” value read?
A: 39.7 µM

Q: With B3 as the binder, how does the “NanoBRET Abs IC50” value read?
A: 18 µM

Q: B4 was tested. Which “NanoBRET Abs IC50” value did it give?
A: > 20 µM

molecular target: T2, B-cat-Halo (beta-catenin HaloTag NanoBRET construct expressed in HEK293 cells) (UniProt P35222 1-781, HaloTag NanoBRET 618 Ligand bound in the assay); assay: cell-based or functional assay
T2 sequence (looked up): T1 sequence (looked up)

Q: With B5 as the binder, how does the “NanoBRET Abs IC50” value read?
A: 22.5 µM

Q: With B6 as the binder, how does the “NanoBRET Abs IC50” value read?
A: 25.8 µM

Q: B7 was tested. Which “NanoBRET Abs IC50” value did it give?
A: 25.2 µM

Q: Which “NanoBRET Abs IC50” value does the source give for B8 here?
A: 17.5 µM

Q: How did the “NanoBRET Abs IC50” value turn out when B9 was run?
A: 25.2 µM

Q: For B10, which “NanoBRET Abs IC50” value is on record?
A: 7.4 µM

Q: How did the “NanoBRET Abs IC50” value turn out when B11 was run?
A: 9.4 µM

Q: B12 was tested. Which “NanoBRET Abs IC50” value did it give?
A: 9.3 µM

Q: B13 was tested. Which “NanoBRET Abs IC50” value did it give?
A: > 20 µM

Q: With B14 as the binder, how does the “NanoBRET Abs IC50” value read?
A: 14 µM

Q: Which “NanoBRET Abs IC50” value does the source give for B15 here?
A: > 20 µM

Q: Which “NanoBRET Abs IC50” value does the source give for B16 here?
A: > 20 µM

molecular target: T3, B-cat-Halo (beta-catenin HaloTag NanoBRET construct expressed in HEK293 cells) (UniProt P35222 1-781); assay: cell-based or functional assay
T3 sequence (looked up): T1 sequence (looked up)

Q: For B17, which “NanoBRET Abs IC50” value is on record?
A: > 20 µM

Q: Which “NanoBRET Abs IC50” value does the source give for B18 here?
A: > 20 µM

Q: For B19, which “NanoBRET Abs IC50” value is on record?
A: 10.9 µM

Q: With B20 as the binder, how does the “NanoBRET Abs IC50” value read?
A: 4.9 µM

Q: For B21, which “NanoBRET Abs IC50” value is on record?
A: 7.7 µM

Q: How did the “NanoBRET Abs IC50” value turn out when B22 was run?
A: 6.4 µM
